Here are results for 1 substance from US20260274968A1.

The target in assay [1] is human recombinant IL-18-BP (human) (UniProt O95998). Put plainly: cell-based or functional assay.
The target is the same in assay [2].
Assay [3] concerns the target human IL-18 receptor complex (IL-18Rα/β) (human) (UniProt Q13478).

Sequence of human recombinant IL-18-BP (human) (O95998 31-194 limits assumed): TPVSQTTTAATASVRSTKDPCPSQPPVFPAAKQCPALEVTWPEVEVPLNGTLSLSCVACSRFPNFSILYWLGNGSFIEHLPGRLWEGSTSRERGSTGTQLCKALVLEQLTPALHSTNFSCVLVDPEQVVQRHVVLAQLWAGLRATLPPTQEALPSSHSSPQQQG
Sequence of recombinant human mature IL-18 (Q14116 37-193): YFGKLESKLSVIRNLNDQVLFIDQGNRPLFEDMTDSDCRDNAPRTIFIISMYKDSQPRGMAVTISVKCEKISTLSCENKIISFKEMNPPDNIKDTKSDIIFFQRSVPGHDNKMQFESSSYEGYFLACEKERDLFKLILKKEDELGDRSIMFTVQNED
Sequence of human IL-18 receptor complex (IL-18Rα/β) (human) (Q13478 19-541, chain 1 of 2): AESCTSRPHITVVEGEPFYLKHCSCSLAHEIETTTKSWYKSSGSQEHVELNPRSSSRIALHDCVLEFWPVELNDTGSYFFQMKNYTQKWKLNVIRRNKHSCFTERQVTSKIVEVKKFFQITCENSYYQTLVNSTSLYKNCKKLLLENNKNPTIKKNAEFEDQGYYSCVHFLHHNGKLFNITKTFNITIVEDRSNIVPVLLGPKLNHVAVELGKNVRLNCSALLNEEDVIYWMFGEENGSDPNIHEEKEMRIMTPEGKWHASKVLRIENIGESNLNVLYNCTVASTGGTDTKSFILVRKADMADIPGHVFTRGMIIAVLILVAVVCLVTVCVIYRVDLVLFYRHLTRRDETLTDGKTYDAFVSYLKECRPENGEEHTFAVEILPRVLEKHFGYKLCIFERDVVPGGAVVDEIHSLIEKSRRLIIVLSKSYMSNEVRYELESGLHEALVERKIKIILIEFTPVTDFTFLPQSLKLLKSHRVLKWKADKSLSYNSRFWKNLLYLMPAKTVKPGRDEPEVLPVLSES
Sequence of human IL-18 receptor complex (IL-18Rα/β) (human) (O95256 20-599, chain 2 of 2, further chain): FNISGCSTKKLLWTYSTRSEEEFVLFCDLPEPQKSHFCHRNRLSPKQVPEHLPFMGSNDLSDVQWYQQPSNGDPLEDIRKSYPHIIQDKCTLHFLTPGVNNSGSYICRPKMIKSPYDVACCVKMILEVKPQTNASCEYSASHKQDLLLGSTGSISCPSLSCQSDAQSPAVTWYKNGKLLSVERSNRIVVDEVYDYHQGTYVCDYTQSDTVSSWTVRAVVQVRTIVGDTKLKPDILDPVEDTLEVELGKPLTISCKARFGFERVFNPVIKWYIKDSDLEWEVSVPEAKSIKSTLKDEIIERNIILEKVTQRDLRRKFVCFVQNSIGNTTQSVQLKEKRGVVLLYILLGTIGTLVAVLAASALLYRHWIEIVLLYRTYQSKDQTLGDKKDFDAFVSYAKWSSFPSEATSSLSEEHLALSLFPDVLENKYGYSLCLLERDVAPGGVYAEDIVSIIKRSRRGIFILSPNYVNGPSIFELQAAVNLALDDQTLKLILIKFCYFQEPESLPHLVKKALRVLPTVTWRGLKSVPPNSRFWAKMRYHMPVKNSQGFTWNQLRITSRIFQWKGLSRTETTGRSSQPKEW

With “recombinant human mature IL-18 (from UniProt Q14116 37-193) (ligand)”, the EC50-SEAP (HEK Blue IL-18), fold attenuation by 1.25 µg/ml hrIL-18-BP in assay [1] was above 1000 fold. For the same substance, the EC50-SEAP, HEK-Blue IL-18 reporter cells, rhIL-18 titrated in medium with 1.25 µg/ml rhIL-18BP (row 'Human rIL-18 + BP') in assay [2] is above 1 ng/mL. Besides, the EC50-SEAP, HEK-Blue IL-18 reporter cells, rhIL-18 titrated in medium alone (row 'Human rIL-18') in assay [3] amounted to 0.0317 ng/mL.
